Test results reported in patent publication US20240101654A1 (NEURIMMUNE, published 2024).

Target: AD-associated Tau in brain extracts of patients with AD (human, UniProt P10636-8 2-441, limits assumed, pathologically modified (sites not given))
Experiment: cell-based or functional assay

AD-associated Tau in brain extracts of patients with AD, sequence (P10636 other isoform, or with tags, fused parts or gaps limits assumed): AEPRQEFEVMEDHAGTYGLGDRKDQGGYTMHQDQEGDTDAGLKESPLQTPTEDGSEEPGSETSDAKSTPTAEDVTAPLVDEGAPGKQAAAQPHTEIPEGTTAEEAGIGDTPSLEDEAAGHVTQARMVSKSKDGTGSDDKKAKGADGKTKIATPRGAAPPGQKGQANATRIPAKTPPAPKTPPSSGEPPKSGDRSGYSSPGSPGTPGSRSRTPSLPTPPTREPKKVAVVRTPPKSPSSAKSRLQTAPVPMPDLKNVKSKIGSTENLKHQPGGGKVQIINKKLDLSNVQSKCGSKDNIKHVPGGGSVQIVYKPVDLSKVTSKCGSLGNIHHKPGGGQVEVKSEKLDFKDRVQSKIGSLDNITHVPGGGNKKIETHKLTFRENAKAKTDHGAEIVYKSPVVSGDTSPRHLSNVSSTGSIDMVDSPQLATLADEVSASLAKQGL

IC50 of Tau aggregation (FRET) in HEK293T Tau biosensor cells seeded with immunodepleted AD brain homogenate	Binder
7.1 µg/mL	NI-502.8H1 (antibody, V domains shown) VH: EVQLVESGGGLVQPGGSLRLSCAASGFTFSIYTMSWVRQAPGKGLEWVSAILSDGSTYYADSVEGRFTISRDNSKTTLYLQMNSLTAEDTAVYYCTKRVEGSFRGWGQGTLVTVSS VL: EIVMTQSPGTLSLSPGESATLSCRASQSVSTTYLAWYQQKPGQAPRLLIYGASSRATGIPDRFSGSGSGTDFTLTISRLEPEDFAVYYCQQYGGSRLITFGQGTRLEIK
6.5 µg/mL	NI-502.4P3 (antibody, V domains shown) VH: EVQLVQSGAEVKKPGESLKISCKVSGYDFSKYWIGWVRQMPGKGLEWMGLIYPGDSDTRYSPSLEGQVSISADKSISAAYLQFSSLKASDSAMYYCVRKGYSAYLGGWFDPWGQGTLVTVSS VL: DIQLTQSPDSLAASLGERVTINCRSSQNIFYNSNNKNFLAWYQQKAGQSPKLLIYWASTRESGVPDRFSGSGSGTDFTLTISGLQAGDVAVYFCQQYFTDAPTFGGGTKVEIK
